According to publication PMC2743916 (Structure (London, England : 1993), 2008):
One block for each binder: values may come before it.

Key:
Spt4 (residues 1-99) = target: T1, Spt4 (residues 1-99) (S. cerevisiae, UniProt P32914 1-99); test: crystal structure
T1 sequence (looked up): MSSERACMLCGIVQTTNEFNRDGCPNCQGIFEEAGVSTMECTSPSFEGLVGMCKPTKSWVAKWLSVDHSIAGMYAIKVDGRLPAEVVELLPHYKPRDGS

crystal structure = target: the molecule itself; test: crystal structure

binding result (Spt4 (residues 1-99)): binds
B1: Spt5NGN domain (residues 285-375) (domain or fragment, S. cerevisiae, UniProt P27692 285-375, looked up)
chain: ATIWGVRCRPGKEKELIRKLLKKKFNLDRAMGKKKLKILSIFQRDNYTGRIYIEAPKQSVIEKFCNGVPDIYISQKLLIPVQELPLLLKPN

B2: Spt4/Spt5NGN fusion protein (other, S. cerevisiae)
chain: MSSERACMLCGIVQTTNEFNRDGCPNCQGIFEEAGVSTMECTSPSFEGLVGMCKPTKSWVAKWLSVDHSIAGMYAIKVDGRLPAEVVELLPHYKPRDGSGSATIWGVRCRPGKEKELIRKLLKKKFNLDRAMGKKKLKILSIFQRDNYTGRIYIEAPKQSVIEKFCNGVPDIYISQKLLIPVQELPLLLKPN
binding result (crystal structure): binds
